Experiments:
[1] = target: RSV F protein of recombinant mKate-RSV, subtype A (strain A2) (Respiratory syncytial virus subtype A …, UniProt P03420 26-574); assay: cell-based or functional assay
[2] = target: RSV F protein of recombinant mKate-RSV, subtype B (18537) (Respiratory syncytial virus subtype B …, UniProt P13843 26-574); assay: cell-based or functional assay

Binder | Neut IC50 subtype A [1] [µg/mL] | Neut IC50 subtype B [2] [µg/mL]
ADI-14496 (antibody, V domains shown) VH: QVQLVQSGAEVKKPGESLKISCQGSGYSFRSYWIGWVRQKPGKGLEYMGIIFPNDFDTRYSPSFQGQVTISVDKSTSTAFLQWTSLQASDTAIYYCGRQELQGSFTIWGQGTMVTVTS VL: DIVMTQSPSSLSASVGDRVTITCQASQDMGNSLNWYQQKSGKAPKLLIYDASYLDSGVPSRFSGSGSGTHFTFTISTLQPEDIATYYCQHYDNLLLFTFGPGTKLEIK | 0.006 | > 10
ADI-14516 (antibody, V domains shown) VH: QVQLVQSGVEVKKPGASVKVSCKTSGYTFSNYGVTWVRQAPGQGLEYMGWISAYNGNTNYAQNVQGRLTMTTDTSTSTGYMELRRLTSDDTAVYFCARDKGVTVAGSLLDYWGQGTLVTVSS VL: EIVMTQSPLSLPVTLGQPASISCRSSQSLEHSDGNTYLNWFQQRPGQSPRRLIYKVSNRDSGVPDRFSGSGSGTDFTLKINRVEAEDVGVYYCMESTHWPPYTFGQGTKVEIK | 0.018 | 0.047
ADI-14501 (antibody, V domains shown) VH: QVQLVQSGAEVKKPGSSVKISCKASGGTFKSQAIHWVRQAPGQGLEWMGNIIPTYGSPNFAQRFLGRVTFIADDSTGAASMDLYRLTSEDTAVYYCATAGWFGELVRFDSWGQGTLVTVSS VL: DIVMTQSPATLSVSPGERATLSCRATESISSNLAWYQQKPGQAPRLLIYGASTRATGIPARFSGSGSGTEFTLTINSLQSEDFAVYYCQQYNNWPPLTFGGGTKVDIK | 12.3 | 2.29
ADI-14515 (antibody, V domains shown) VH: QVQLVQSGGGVVQPGSSLRLSCSASGFTFMTYGMHWARQAPGKGLEWVADISFDANKKYYRDSVKGRFTISRDNSKNTVYLQMNSLRPEDTAVYFCARNTIFGVVDYWGQGTLVTVSS VL: EIVLTQSPATLSVSPGERATLSCRASQSVSANLAWYQHKPGQAPRLLIYGASTRASDIPARFSGSGSGTEFTLTISSLQSEDSAVYYCQQYNNWPPWTFGQGTKVEIK | 0.051 | 0.049
ADI-14505 (antibody, V domains shown) VH: QVQLVQSGAEVKKPGASVKVSCKASGNSFNDFYMHWVRQAPGQGLEWMGWIDPNNGGANYAQKFHGRVTMTRDSSINTAYMELSRLRSDDTAVYYCASEPPGVGFGLIPHYYFDNWGQGTLVTVSS VL: EIVMTQSPDSLAVSLGERATINCKSSQNVLDTSNNKNYLAWYQQKPGQPPRLLIYWASARGSGVPDRFSGSGSGTHFTLTISSLQAEDVAVYYCQQYFSIPPTFGQGTKVEIK | 0.065 | 0.018
ADI-14444 (antibody, V domains shown) VH: QVQLVQSGPDVKRPGASVRVSCKASGYTFSDYYMHWVRQAPGQGLEWLAWVNPSTGATHYSESFRGSMVVQRDTSTDTAYLELSSLKSDDTAVYYCARIGSNEIWGQGTMVTVSS VL: QSALTQPASVSGSPGQSITISCAGTSSDIGGWNYVSWYQQYPGQVPKLILYEVTDRPSGVSHRFSGSKSGNRAFLTITGLRAEDEADYYCCSFTSSGSRVFGGGTKVTVL | > 10 | > 10
ADI-14518 (antibody, V domains shown) VH: QVQLVQSGPEVKKPGASVRVSCKTSGFTLSHYGVSWLRQAPGHGLEWLGWISAYNYNTQFGHRMEGRLTMTTDTSTAYMDLTSLTSDDTAIYYCARDSPSDTAAALLDFWGQGTLVTVSS VL: DIVLTQSPLSLPVTLGQPASISCRSSQSLVYSDGNTYLSWFQQRPGQAPRRLIYKISNRDSGVPDRFSGSGSGTDFTLKISRVEAEDVGIYYCMQATHWPRLSFGGGTKVEIK | 0.019 | 0.032
ADI-14508 (antibody, V domains shown) VH: QVQLVQSGTEVKKPGASVKVSCKGSGYMFANFGVSWVRQAPGRGLEWIGWISAYNGNTYYGREQGRFTMTTDTNTAYLELTSLRYDDTALYFCARDSGATAAGILWDYWGQGTLVTVSS VL: EIVMTQSPLSLPVTLGQPASISCRSSQSLAYTDGSTYLNWFHQRPGQSPRRLIYKVFNRDSGVPDRFSGSGAGTDFTLTISRVEAEDVGVYYCMQATHWPRTFGQGTKVDIK | 0.029 | 0.057
ADI-14442 (antibody, V domains shown) VH: QVQLVQSGSEVKKPGASVKVSCKASGYRFSNYGISWVRQAPGQGLEWMGWISAYNGNIKYGNNLQGRVTVTTDTSTATAYMEVRSLTSDDTAVYYCARDVPADGVHFMDVWGQGTLVTVSS VL: EIVMTQSPLSLPVTLGQPASISCRSSQSLVHSDTNTYLNWFQQRPGQSPRRLIYKVSNRDSGVPDRFSGSGSGTTFTLKISRVEAEDVGIYYCMQGSHWAPTFGQGTKVEIK | 0.002 | 0.015
ADI-14509 (antibody, V domains shown) VH: QVQLVQSGSEVKKPGASVTLSCKASGYRFSNYGVSWVRQAPGQGLEWMGWISGYNGNIKYGNSLQGRVTLTTDTTTAYMEVTSLTSDDTAVYYCARDVPADGVHFMDVWGKGTTVTVSS VL: EIVLTQSPLSLPVTLGQPASISCRSSQSLVHSDTNTYLTWFQQRPGQSPRRLIYKVSHRDSGVPDRFSGSGSGTTFTLKIARVEAEDVGIYYCMEGSHWAPTFGQGTKVDIK | 0.011 | 0.016
ADI-14514 (antibody, V domains shown) VH: QVQLVQSGSEVKKPGASVTVSCKASGYRFSNYGVSWVRQAPGQGLEWMGWISAYNGNTKYGNSLQGRVTLTTDTTTAYMEVRSLTSDDTAVYYCARDVPGDGVHFMDVWGKGTTVTVSS VL: EIVMTQSPLSLPVTLGQSASISCRSSQSLVHSDTNTYLTWFQQRPGQSPRRLIYKVSHRDSGVPDRFSGSGSGTTFTLKISRVEAEDVGIYYCMEGSHWAPTFGQGTKVEIK | 0.046 | 0.074
ADI-14489 (antibody, V domains shown) VH: QVQLVQSGSEVKKPGASVKVSCKASGYRFSNYGISWVRQAPGQGLEWMGWISAYNGNIKYGNNLQGRVTVTTDTSTTTAYMEVRSLTSDDTAVYYCARDVPADGVHFMDVWGKGTTVTVSS VL: DIVMTQTPLSLPVTLGQPASISCRSSQSLVHSDTNTYLNWFQQRPGQSPRRLIYKVSNRDSGVPDRFSGSGSGTTFTLKISRVEAEDVGIYYCMQGSHWAPTFGQGTKVEIK | 0.023 | 0.021
ADI-14493 (antibody, V domains shown) VH: QVQLQQWGTGLVKPSETLSLTCAVSGGAFSGHQWNWFRQPPGKGLEWIGEINVSGNTHYNVSLRSRVTISLDESKKQFSLKMTSVTAADTAIYYCAKASSGSYHFEYWFDPWSQGTMVTVSS VL: SYELTQPPSVSVAPGKMAWFTCGGSDIGSKRVHWYQQKPGQAPVLLVYDDSLRPSGTSARVSGSTSGNTATLSIISVEAGDEADYFCQVWDDADDHAVFGGGTKLTVL | 0.009 | 1.27
ADI-14502 (antibody, V domains shown) VH: QVQLVQSGAEVKKPGSSVKVSCKASGDTFSMYAISWVRQAPGQGLEWMGGVLPMLGTSNYAQQFRGRVTITADGSTSTAYMEMSNLRFEDTAVYYCARVAGLGNSYGRYFDVWGQGTLVTVSS VL: DIRMTQSPSSVSASIGDRVTITCRASQDISTSLAWYQQRPGKAPNLLIYAASTLHSGVPSRFRGSESGPDFTLTISSLQPEDVGTYYCQQAKSFPYTFGQGTKLEIK | > 10 | 2.72
